The Human Domainome abundance scans (Beltran et al. 2025)
± gives the uncertainty stated by the source.

B1: Transcriptional regulator ERG, residues 117 to 197; numbered along this chain, P11308 (parent)
chain: NMTTNERRVIVPADPTLWSTDHVRQWLEWAVKEYGLPDVNILLFQNIDGKELCKMTKDDFQRLTPSYNADILLSHLHYLRE

Variants of: B1
Assay: abundance fitness (aPCA) (normalised: wild type 0, dead -1); higher = more abundant; growth selection in yeast, the domain comes from the species named
Conditions: Homo sapiens

Q: For NMTTNERMVIVPADPTLWSTDHVRQWLEWAVKEYGLPDVNILLFQNIDGKELCKMTKDDFQRLTPSYNADILLSHLHYLRE, which abundance fitness is on record?
A: The abundance fitness was -0.263 ± 0.083.

Q: For NMTTNERCVIVPADPTLWSTDHVRQWLEWAVKEYGLPDVNILLFQNIDGKELCKMTKDDFQRLTPSYNADILLSHLHYLRE, which abundance fitness is on record?
A: The abundance fitness was -0.112 ± 0.08.

Q: For NMTTNERKVIVPADPTLWSTDHVRQWLEWAVKEYGLPDVNILLFQNIDGKELCKMTKDDFQRLTPSYNADILLSHLHYLRE, which abundance fitness is on record?
A: Its abundance fitness is 0.104 ± 0.064.

Q: For NMTTNERFVIVPADPTLWSTDHVRQWLEWAVKEYGLPDVNILLFQNIDGKELCKMTKDDFQRLTPSYNADILLSHLHYLRE, which abundance fitness is on record?
A: Its abundance fitness is -0.076 ± 0.068.

Q: With NMTTNERAVIVPADPTLWSTDHVRQWLEWAVKEYGLPDVNILLFQNIDGKELCKMTKDDFQRLTPSYNADILLSHLHYLRE as the variant, how does the abundance fitness read?
A: The abundance fitness was -0.084 ± 0.056.

Q: Which abundance fitness does the source give for NMTTNERLVIVPADPTLWSTDHVRQWLEWAVKEYGLPDVNILLFQNIDGKELCKMTKDDFQRLTPSYNADILLSHLHYLRE here?
A: Its abundance fitness is -0.29 ± 0.054.

Q: Which abundance fitness does the source give for NMTTNERIVIVPADPTLWSTDHVRQWLEWAVKEYGLPDVNILLFQNIDGKELCKMTKDDFQRLTPSYNADILLSHLHYLRE here?
A: Its abundance fitness is -0.323 ± 0.077.

Q: With NMTTNERHVIVPADPTLWSTDHVRQWLEWAVKEYGLPDVNILLFQNIDGKELCKMTKDDFQRLTPSYNADILLSHLHYLRE as the variant, how does the abundance fitness read?
A: Its abundance fitness is -0.098 ± 0.073.

Q: With NMTTNEREVIVPADPTLWSTDHVRQWLEWAVKEYGLPDVNILLFQNIDGKELCKMTKDDFQRLTPSYNADILLSHLHYLRE as the variant, how does the abundance fitness read?
A: The abundance fitness was 0.09 ± 0.068.

Q: Which abundance fitness does the source give for NMTTNERGVIVPADPTLWSTDHVRQWLEWAVKEYGLPDVNILLFQNIDGKELCKMTKDDFQRLTPSYNADILLSHLHYLRE here?
A: Its abundance fitness is -0.207 ± 0.067.

Q: With NMTTNERDVIVPADPTLWSTDHVRQWLEWAVKEYGLPDVNILLFQNIDGKELCKMTKDDFQRLTPSYNADILLSHLHYLRE as the variant, how does the abundance fitness read?
A: Its abundance fitness is 0.116 ± 0.067.

Q: Which abundance fitness does the source give for NMTTNEYRVIVPADPTLWSTDHVRQWLEWAVKEYGLPDVNILLFQNIDGKELCKMTKDDFQRLTPSYNADILLSHLHYLRE here?
A: Its abundance fitness is -0.127 ± 0.076.

Q: With NMTTNEWRVIVPADPTLWSTDHVRQWLEWAVKEYGLPDVNILLFQNIDGKELCKMTKDDFQRLTPSYNADILLSHLHYLRE as the variant, how does the abundance fitness read?
A: The abundance fitness was -0.053 ± 0.045.

Q: With NMTTNEKRVIVPADPTLWSTDHVRQWLEWAVKEYGLPDVNILLFQNIDGKELCKMTKDDFQRLTPSYNADILLSHLHYLRE as the variant, how does the abundance fitness read?
A: Its abundance fitness is 0.018 ± 0.049.

Q: For NMTTNEGRVIVPADPTLWSTDHVRQWLEWAVKEYGLPDVNILLFQNIDGKELCKMTKDDFQRLTPSYNADILLSHLHYLRE, which abundance fitness is on record?
A: The abundance fitness was -0.003 ± 0.032.

Q: Which abundance fitness does the source give for NMTTNESRVIVPADPTLWSTDHVRQWLEWAVKEYGLPDVNILLFQNIDGKELCKMTKDDFQRLTPSYNADILLSHLHYLRE here?
A: Its abundance fitness is -0.047 ± 0.045.

Q: Which abundance fitness does the source give for NMTTNEERVIVPADPTLWSTDHVRQWLEWAVKEYGLPDVNILLFQNIDGKELCKMTKDDFQRLTPSYNADILLSHLHYLRE here?
A: Its abundance fitness is 0.06 ± 0.045.

Q: Which abundance fitness does the source give for NMTTNECRVIVPADPTLWSTDHVRQWLEWAVKEYGLPDVNILLFQNIDGKELCKMTKDDFQRLTPSYNADILLSHLHYLRE here?
A: Its abundance fitness is -0.12 ± 0.068.

Q: With NMTTNEARVIVPADPTLWSTDHVRQWLEWAVKEYGLPDVNILLFQNIDGKELCKMTKDDFQRLTPSYNADILLSHLHYLRE as the variant, how does the abundance fitness read?
A: The abundance fitness was 0 ± 0.037.

Q: With NMTTNEMRVIVPADPTLWSTDHVRQWLEWAVKEYGLPDVNILLFQNIDGKELCKMTKDDFQRLTPSYNADILLSHLHYLRE as the variant, how does the abundance fitness read?
A: The abundance fitness was 0.044 ± 0.053.

Q: With NMTTNEHRVIVPADPTLWSTDHVRQWLEWAVKEYGLPDVNILLFQNIDGKELCKMTKDDFQRLTPSYNADILLSHLHYLRE as the variant, how does the abundance fitness read?
A: The abundance fitness was -0.115 ± 0.078.

Q: Which abundance fitness does the source give for NMTTNEQRVIVPADPTLWSTDHVRQWLEWAVKEYGLPDVNILLFQNIDGKELCKMTKDDFQRLTPSYNADILLSHLHYLRE here?
A: Its abundance fitness is 0.016 ± 0.056.

Q: For NMTTNEVRVIVPADPTLWSTDHVRQWLEWAVKEYGLPDVNILLFQNIDGKELCKMTKDDFQRLTPSYNADILLSHLHYLRE, which abundance fitness is on record?
A: Its abundance fitness is -0.045 ± 0.038.

Q: For NMTTNEDRVIVPADPTLWSTDHVRQWLEWAVKEYGLPDVNILLFQNIDGKELCKMTKDDFQRLTPSYNADILLSHLHYLRE, which abundance fitness is on record?
A: The abundance fitness was 0.037 ± 0.057.

Q: With NMTTNENRVIVPADPTLWSTDHVRQWLEWAVKEYGLPDVNILLFQNIDGKELCKMTKDDFQRLTPSYNADILLSHLHYLRE as the variant, how does the abundance fitness read?
A: Its abundance fitness is -0.09 ± 0.074.

Q: With NMTTNEIRVIVPADPTLWSTDHVRQWLEWAVKEYGLPDVNILLFQNIDGKELCKMTKDDFQRLTPSYNADILLSHLHYLRE as the variant, how does the abundance fitness read?
A: The abundance fitness was -0.208 ± 0.074.

Q: Which abundance fitness does the source give for NMTTNETRVIVPADPTLWSTDHVRQWLEWAVKEYGLPDVNILLFQNIDGKELCKMTKDDFQRLTPSYNADILLSHLHYLRE here?
A: The abundance fitness was 0.021 ± 0.048.

Q: Which abundance fitness does the source give for NMTTNELRVIVPADPTLWSTDHVRQWLEWAVKEYGLPDVNILLFQNIDGKELCKMTKDDFQRLTPSYNADILLSHLHYLRE here?
A: The abundance fitness was 0.087 ± 0.039.

Q: With NMTTNEPRVIVPADPTLWSTDHVRQWLEWAVKEYGLPDVNILLFQNIDGKELCKMTKDDFQRLTPSYNADILLSHLHYLRE as the variant, how does the abundance fitness read?
A: The abundance fitness was 0.049 ± 0.056.

Q: For NMTTNQRRVIVPADPTLWSTDHVRQWLEWAVKEYGLPDVNILLFQNIDGKELCKMTKDDFQRLTPSYNADILLSHLHYLRE, which abundance fitness is on record?
A: The abundance fitness was 0.002 ± 0.067.

Q: With NMTTNARRVIVPADPTLWSTDHVRQWLEWAVKEYGLPDVNILLFQNIDGKELCKMTKDDFQRLTPSYNADILLSHLHYLRE as the variant, how does the abundance fitness read?
A: The abundance fitness was -0.139 ± 0.043.

Q: With NMTTNNRRVIVPADPTLWSTDHVRQWLEWAVKEYGLPDVNILLFQNIDGKELCKMTKDDFQRLTPSYNADILLSHLHYLRE as the variant, how does the abundance fitness read?
A: Its abundance fitness is 0.017 ± 0.068.

Q: Which abundance fitness does the source give for NMTTNHRRVIVPADPTLWSTDHVRQWLEWAVKEYGLPDVNILLFQNIDGKELCKMTKDDFQRLTPSYNADILLSHLHYLRE here?
A: The abundance fitness was 0.004 ± 0.083.

Q: With NMTTNLRRVIVPADPTLWSTDHVRQWLEWAVKEYGLPDVNILLFQNIDGKELCKMTKDDFQRLTPSYNADILLSHLHYLRE as the variant, how does the abundance fitness read?
A: The abundance fitness was 0.006 ± 0.042.
